This note sets out measurements from article PMC8376909, “Identification of a transcription factor, PunR, that regulates the purine and purine nucleoside transporter punC in E. coli”.

The target of data set [1] is T1, PunR (YdhB), LysR-family regulator (Escherichia coli K-12 (ASKA collection …, UniProt P0ACR2 1-310)).
T1 sequence: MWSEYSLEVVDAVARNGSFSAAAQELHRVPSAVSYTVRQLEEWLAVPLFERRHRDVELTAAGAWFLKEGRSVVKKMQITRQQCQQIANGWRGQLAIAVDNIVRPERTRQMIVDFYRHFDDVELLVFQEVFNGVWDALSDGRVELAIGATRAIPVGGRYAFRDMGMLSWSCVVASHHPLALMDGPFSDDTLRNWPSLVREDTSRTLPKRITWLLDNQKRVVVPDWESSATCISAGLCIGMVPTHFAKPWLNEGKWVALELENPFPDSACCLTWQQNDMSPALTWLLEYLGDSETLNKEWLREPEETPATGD
Nature of the data set: fluorescence polarization; 0.35 mM adenine; 10 mM MgSO4; FP: 20 mM Tris-HCl pH 7.5, 0.1 M NaCl, 0.5 mM EDTA, 10 mM MgSO4, 2 mM DTT, 5 ug/ml herring sperm DNA, 10 nM DNA, 30 C 1 h; EMSA: PBS pH 8, 10 mM MgSO4, 2 mM DTT, 0.25 mM adenine (Methods; 1 or 10 mM in Results and Fig. S3), 100 nM DNA, 30 C 1 h then 25 C 1 h, 6% native PAGE Tris-glycine with 0.25 mM adenine. The settings on record: protein: recombinant; tags: N-terminal His6; chain copies: 4; label: 5' 6-carboxyfluorescein on printed strand; blunt.

Data set [2] deals with T1, PunR (YdhB), LysR-family regulator. Description: EMSA; 1 mM adenine; PunR up to 1.5 uM; 10 mM MgSO4; FP: 20 mM Tris-HCl pH 7.5, 0.1 M NaCl, 0.5 mM EDTA, 10 mM MgSO4, 2 mM DTT, 5 ug/ml herring sperm DNA, 10 nM DNA, 30 C 1 h; EMSA: PBS pH 8, 10 mM MgSO4, 2 mM DTT, 0.25 mM adenine (Methods; 1 or 10 mM in Results and Fig. S3), 100 nM DNA, 30 C 1 h then 25 C 1 h, 6% native PAGE Tris-glycine with 0.25 mM adenine. The following applies: protein: recombinant; tags: N-terminal His6; chain copies: 4; label: 5' 6-carboxyfluorescein on printed strand; blunt.

B1: PunR-binding site 36 bp upstream of punC (dsDNA)
DNA 1: TGGGGACTGGTTTCAAAAATTTTGCAGGCAGAGGGG
DNA 2: CCCCTCTGCCTGCAAAATTTTTGAAACCAGTCCCCA
With B1, the Kd in data set [1] is 27 nM.

B2: GguR binding site 26 bp (negative control) (dsDNA)
DNA 1: ACCCCCAGTCATCAGACAACCTCCCC
DNA 2: GGGGAGGTTGTCTGATGACTGGGGGT
Consider B2, for which the binding result in data set [2] is “no binding”.
